Test results taken from paper doi:10.1101/2020.09.29.318733.

How the values were obtained:
Kohinoor = test: SEC
Padron = test: SEC

Substance | stoichiometry N (Kohinoor) | stoichiometry N (Padron)
Kohinoor | 2 | –
Padron | – | 4
